In the assay the target is Tom22-T1′ (Tom22 without helix H1) (human) (UniProt Q9NS69). Put plainly: pull-down.

Take Su9-TEV-DHFR-EGFP-Strep: the decrease in the binding ability against Tom22 before cleavage is 75%.

Values taken from paper PMC9245660 (Proceedings of the National Academy of Sciences of the …, 2022).
